Assay results from US20260001891A1 (KEYMED BIOSCIENCES CHENGDU, published 2026).

B1: ADC-126 (antibody, human IgG1, V domains shown)
VH: QVQLQQSGAEVKKPGSSVKVSCKASGYTFTNYYIYWVRQAPGQGLEWIGGINPTSGGSNFNEKFKTRVTITVDESTNTAYMELSSLRSEDTAFYFCARQGLWFDSDGRGFDFWGQGSTVTVSS
VL: DIQMTQSPSSLSASVGDRVTITCRSSQNIVHSNGNTYLDWYQQTPGKAPKLLIYKVSNRFSGVPSRFSGSGSGTDFTFTISSLQPEDIATYYCFQYSHVPWTFGQGTKLQITR
modifications: linker-drug LD-105 (maleimide) coupled to cysteine sulfhydryls after TCEP reduction; average drug loading y=4.96 per antibody; positions not given
B2: ADC-128 (antibody, human IgG1, V domains shown)
VH: B1 VH
VL: B1 VL
modifications: linker-drug LD-13 coupled to cysteine sulfhydryls after TCEP reduction; average drug loading y=7.62 per antibody; positions not given
B3: ADC-129 (antibody, human IgG1, V domains shown)
VH: B1 VH
VL: B1 VL
modifications: linker-drug LD-99 coupled to cysteine sulfhydryls after TCEP reduction; average drug loading y=7.11 per antibody; positions not given

Biological target: EGFR (human (endogenous on human cancer cell …, UniProt P00533 25-1210))
Test: cell-based or functional assay

Binder	IC50 of in vitro proliferation inhibition, EGFR-positive MDA-MB-468 cells (CCK8, 6 days)
B1	0.21 nM
B2	0.21 nM
B3	0.2 nM
